Results on 167 variants are retold here after the RNAGym collection of RNA variant scans (doi:10.1073/pnas.2313332121).

The chains are these.
B1: TPR t1 (parent)
chain: GACCAAUCUGCCCUCAGAGCUCGAGAACAUCUUCGGAUGCAGAGGAGGCAGGCUUCGGUGGCGCGAUAGCGCCAACGUCCUCAACCUCCAAUGCAUCCCACCACAUGAUGAUGCCUGAAGAGCCUUGGUUUUUUG

In the data set the parent is B1. The data set can be described thus: polymerase ribozyme fitness, log enrichment relative to wild type (log ratio); higher = more active; in vitro selection for triplet polymerase activity. An outline of the steps: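 Libraries of mutants in each subunit of a heterodimeric triplet polymerase ribozyme were generated by PCR and transcribed. In triplicate, each went through one in vitro selection round: annealing with biotinylated primer, partner subunit and triplets; frozen incubation at −7 °C; gel excision of extended constructs; streptavidin-bead capture; RT-PCR. Fitness, taken from Illumina sequencing of input and output libraries, is the logarithm of a genotype's enrichment over wild-type enrichment, averaged across replicates with inverse-variance weights. The logarithm is base 2, and genotypes needed ≥10 input reads and ≥1 read per output to be kept.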
Turning to G52A G63A C73U U81C C114A, the “polymerase ribozyme fitness (log ratio)” value is -7.55. In the case of G52U A84C G93C it was -2.23; in that of G52A C70U C104A C124G, -3.65; in that of G51A G57C U112G, -1.7. Consider G52A C98A, for which the “polymerase ribozyme fitness (log ratio)” value was -4.54. For G52A C88G, the “polymerase ribozyme fitness (log ratio)” value was -0.655. As to G52U C53U C56U G93U U109G, the “polymerase ribozyme fitness (log ratio)” value was -6.55. On to A50U U81A C85G, for which the “polymerase ribozyme fitness (log ratio)” value is -0.884.

In the case of G52C U59G A118G, the “polymerase ribozyme fitness (log ratio)” value was -0.37.

With A50U G52A, the “polymerase ribozyme fitness (log ratio)” value is -2.66. Under A50U G52U stands -2.39; under G51U C72A, -2.55. In the case of G51U G61C U133G it was -2.81; in that of G51U C123U, -2.12; in that of A50U U96A, -1.77. For the variant G51A C64A U78C A84C G117C, the “polymerase ribozyme fitness (log ratio)” value is -6.38. Under A50U G63C C86G U87A stands -3.52; under G51C G135U, -4.93; under G51U A74G, -2.72. In the case of G52C U81A U130A it was -2.3.

Regarding G51A A74G, the “polymerase ribozyme fitness (log ratio)” value is -1.96. With A50U G61C G122U, the “polymerase ribozyme fitness (log ratio)” value is -3.51.

Regarding A50U U59A, the “polymerase ribozyme fitness (log ratio)” value was -0.619. Under G51U C101A stands -4.55; under G51C C99U, -7.54; under G51U G61U G127A, -4.92. In the case of G52A C79U it was -0.581; in that of G52A C79A, -0.667.

Consider A50U G61U U126G, for which the “polymerase ribozyme fitness (log ratio)” value is -2.73. Under G52C U67A C70A G117C stands -6.05; under G52U A83U G127A, -3.16. Under A50U G63U C89U stands -3.86; under G51A G52A U54C, -4.49.

Take G51U C72A U130G: the “polymerase ribozyme fitness (log ratio)” value was -3.04. Regarding G52A G61A C79G, the “polymerase ribozyme fitness (log ratio)” value was -0.673. In the case of G51C C73G C114A it was -6.6; in that of G51A C62A A75C U131A, -5.36; in that of G52C U132A, -1.09.

As for G52C U96C G110U, the “polymerase ribozyme fitness (log ratio)” value was -1.98. Under G52U C56U U116A stands -4.17. For G51A C62A G117U U134G, the “polymerase ribozyme fitness (log ratio)” value is -5.73. Regarding G51U C88A U106A U112C, the “polymerase ribozyme fitness (log ratio)” value was -3.27.

In the case of G51A C72G, the “polymerase ribozyme fitness (log ratio)” value is -2.71. In the case of G51U U54A C89U U129C it was -2.82; in that of A50U G61C C79G U106C C115U C124A, -5.24; in that of A50U C115G A121C G128U, -4.2. As for G52C G117A, the “polymerase ribozyme fitness (log ratio)” value was -1.64. On to G51U C104A U133G, for which the “polymerase ribozyme fitness (log ratio)” value is -5.02.

Turning to G52U C62G C89G U109C A111U, the “polymerase ribozyme fitness (log ratio)” value is -6.22. As for A50U G58A G63U G113C U129G, the “polymerase ribozyme fitness (log ratio)” value is -7.01.

Regarding G52C C115A, the “polymerase ribozyme fitness (log ratio)” value is -1.03. As to G52C C53G A68G G77A U81A C98U, the “polymerase ribozyme fitness (log ratio)” value is -5.4.

Take G51U G52C U96C: the “polymerase ribozyme fitness (log ratio)” value was -3.75. As to G51U G60U C79G C85A C114U G120U G127U, the “polymerase ribozyme fitness (log ratio)” value is -4.96. Under G51U G58C C86A C104U stands -3.76; under G52C C56A C72G U132C, -3.89; under G52C G122A, -1.3.

Take G52A A111C: the “polymerase ribozyme fitness (log ratio)” value was found to be 0.197.

Turning to G51A C53U C62G G69U C82U G120U, the “polymerase ribozyme fitness (log ratio)” value is -6.98.

With G51U C64G U112G, the “polymerase ribozyme fitness (log ratio)” value was -6.95. In the case of G51A G61C it was -3.7; in that of G51A G61U, -2.94. In the case of A50U G69U C80G C98U G113A it was -3.31; in that of A50U U54C U106A G117A, -1.12.

In the case of G51A G93U C104U, the “polymerase ribozyme fitness (log ratio)” value is -3.96. In the case of G52A C64G C88G G120U it was -6.36; in that of G52A A74U C80U, -1.78. Take G52A A118U: the “polymerase ribozyme fitness (log ratio)” value came to 0.938. As to G51A C64G C101G G113A C123A, the “polymerase ribozyme fitness (log ratio)” value was -6.84. In the case of G51C G63U A84U U112G U132A it was -5.83; in that of G51U C56A C98U C99U C124A U131G, -6.41. Under G52A G61A G127U stands -1.95; under G52A C102U G120A, -1.56; under A50U G57U, -1.1.

A50U G135U: the “polymerase ribozyme fitness (log ratio)” value was -2.36. Under G51U U112A stands -3.68.

Take G52A C104U G110C: the “polymerase ribozyme fitness (log ratio)” value was -2.99. Turning to G52U A111U, the “polymerase ribozyme fitness (log ratio)” value was -3.93. In the case of G52U A111C it was -2.18; in that of G51A G52A U112A U116C G128A, -6.33.

In the case of G51U C56G, the “polymerase ribozyme fitness (log ratio)” value is -5.36. With G51U C56U, the “polymerase ribozyme fitness (log ratio)” value was -2.11. In the case of A50U G51A C73U it was -3.5; in that of G52U C56U A84U, -1.37; in that of G52C C73U G110U, -2.38.

As to G52C C88A, the “polymerase ribozyme fitness (log ratio)” value was -0.833. With G52A C72A, the “polymerase ribozyme fitness (log ratio)” value was 0.151. Consider G51C G60C A75U, for which the “polymerase ribozyme fitness (log ratio)” value is -2.9.

As for G51U C124U, the “polymerase ribozyme fitness (log ratio)” value is -2.88. In the case of G51U C124G it was -1.68; in that of A50U U81C C114A, -6.09; in that of A50U U87G G113U, -4.19. As for G52C C70U C72U G117U, the “polymerase ribozyme fitness (log ratio)” value is -4.23. Under G51U U54A C123G U129A stands -2.43; under G51A A103G, -6.42; under G51A C123A, -1.89. Consider G51A C123G, for which the “polymerase ribozyme fitness (log ratio)” value is -0.157. In the case of G52A G60A C79A C115A U132A it was -0.536; in that of G52U A105C, -3.57. Regarding G51A G77C U116C A118C, the “polymerase ribozyme fitness (log ratio)” value was -5.43. In the case of G52C U78C G117U it was -2.77; in that of G51A G71U G77U, -3.39; in that of G51C C82A, -4.42. Turning to G51A C124A, the “polymerase ribozyme fitness (log ratio)” value was -1.48. In the case of A50U G57A U130C it was -1.53; in that of G52A G57A, -1.07. With G51A G61A U125A, the “polymerase ribozyme fitness (log ratio)” value is -2.21. For G51A A100U, the “polymerase ribozyme fitness (log ratio)” value was -4.16. As to G52A C104U, the “polymerase ribozyme fitness (log ratio)” value stood at 0.136. In the case of G51C C56U C115U U131A it was -4.93; in that of G52A C70A U92A G93C A105U U112A C115A U130C, -6.48; in that of G52C G61C, -3.04. Under G52C C72U C73G stands -1.01; under G51U U112A U133C, -3.27. Regarding G52C U54G U87C A100U, the “polymerase ribozyme fitness (log ratio)” value was -1.94. In the case of G51A C99U C124A it was -5.8; in that of G51C G61U, -5.29. Regarding G52C U54G G69A U87C A100U, the “polymerase ribozyme fitness (log ratio)” value is -6.57. With A50U U109A A111C G120U A121G, the “polymerase ribozyme fitness (log ratio)” value was -6.95.

In the case of A50U G61A U106A, the “polymerase ribozyme fitness (log ratio)” value is -1.03. For the variant G52A G71C G93C, the “polymerase ribozyme fitness (log ratio)” value is -5.59. In the case of G52A A68G G93A it was -5.07; in that of G52C G93C, -1.82.

Turning to G51A G52A G61U C101U, the “polymerase ribozyme fitness (log ratio)” value is -3.85. Under G52A G71C A95C G113C stands -6.98.

With A50U U81A, the “polymerase ribozyme fitness (log ratio)” value is -0.662.

As for A50U U81C, the “polymerase ribozyme fitness (log ratio)” value was -1.83. Under G51A U87C U131A stands -2.41; under G52C A84G U87C A111G, -2.78.

A50U G61U C94A G110U: the “polymerase ribozyme fitness (log ratio)” value was -4.5. In the case of G51U C53A G60A, the “polymerase ribozyme fitness (log ratio)” value is -5.54. In the case of G52A G60U C82A C88U A90G U116A U130A it was -6.12; in that of G52C A100C C114A, -4.06. In the case of G52A G120C, the “polymerase ribozyme fitness (log ratio)” value turned out to be 0.847. In the case of G51C G110C it was -6.54; in that of G52U A103U, -6.74; in that of G51U G120C, -2.42. With G51U G120U, the “polymerase ribozyme fitness (log ratio)” value was -3.69.

Turning to A50U G69A C123G U131G, the “polymerase ribozyme fitness (log ratio)” value was -4.01.

For G51A C56U G63C A84U C99U A121U, the “polymerase ribozyme fitness (log ratio)” value is -6.23.

G51U C73G: the “polymerase ribozyme fitness (log ratio)” value was -3.52. In the case of G51A U54G C72G C80A C82G, the “polymerase ribozyme fitness (log ratio)” value was -4.89.

For the variant A50U G60A C123G, the “polymerase ribozyme fitness (log ratio)” value is 1.09.

As for G51C C53A, the “polymerase ribozyme fitness (log ratio)” value is -4.19. Under G52C C53U G71U stands -0.538.

As for G52A A74G C79G U96G, the “polymerase ribozyme fitness (log ratio)” value was -0.912.

For G52C U131A, the “polymerase ribozyme fitness (log ratio)” value was -0.555. G51C U78C A121C G122U C124A: the “polymerase ribozyme fitness (log ratio)” value was -4.73. In the case of G51U, the “polymerase ribozyme fitness (log ratio)” value is -3.23.

For the variant G51C, the “polymerase ribozyme fitness (log ratio)” value is -3.7.

For the variant G51A, the “polymerase ribozyme fitness (log ratio)” value is -2.49. In the case of G52C C56G G71U C124U, the “polymerase ribozyme fitness (log ratio)” value was -3.19. In the case of G51U U130A it was -3.79; in that of G52C C70U C76U U106A, -2.68; in that of A50U G52C G58C C73U C88U, -4.53.

As for G51U U54G C62A G113U, the “polymerase ribozyme fitness (log ratio)” value is -7.8. Take G51C G93C: the “polymerase ribozyme fitness (log ratio)” value is -4.73. In the case of A50U C102A it was -2.99; in that of G51C C70G U109G, -7.25; in that of G52A C79U G120U, -0.265.

Regarding G52C C70A G117U G120U, the “polymerase ribozyme fitness (log ratio)” value is -4.71.

In the case of A50U U87G, the “polymerase ribozyme fitness (log ratio)” value was -1.44.

For the variant G51U U55A C64U C114G C115U C123U, the “polymerase ribozyme fitness (log ratio)” value was -7.28.

For the variant G52C U55G A83C C115U A118G, the “polymerase ribozyme fitness (log ratio)” value was -2.39. Under A50U G60A stands -0.0812; under A50U G60C, -1.06; under A50U U78C, -2.19.
